Test results published in the nanobody polyreactivity screen of Harvey et al. (2022).

experiment: yeast display, Sf9 membrane polyspecificity reagent, FACS + sequencing; frameworks hold sequencing errors
How it was run: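 A nanobody's polyreactivity label depends on the gate it was sorted from. Yeast display cells were stained with 10% biotinylated, detergent-solubilized Sf9 membrane reagent for 1 hour at 4 °C, enriched on streptavidin microbeads and sorted by FACS. The low and high (top ~1%) gates were set on anti-HA fluorescence for expression and streptavidin fluorescence for reagent binding.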

Row | Sequence | polyreactivity (PSR sort gate)
1 | QVQLVESGGGLVQAGGSLRLSCAASGSIFGWYAMGLYRQAPGKERELVAAITFSSVSTYYADSVKGRFTISRDNAKNTVYLQMNSLKPEVTAVYYCGAVVYYTFDYWVQGTQVTVSS | low polyreactivity
2 | QVQLVESGGGLVQAGGSLRLSCAASGSIFGWYAMGWYRQAPGKERELVADISYIGVSTYYADSVKGRFTISRDNAKNTVYLQMNTLKPEDTAVYYCATYYLLYPIPYGYPRSPEYEYWGQGTQVTVSS | low polyreactivity
3 | QVQLVESGGGLVQAGGSLRLSCAASGSIFGWYAMGWYRQAPGKERELVASIRKSGGSTYYADSVKGRFTISRDNAKNTVYLQMNSLKPEDTAVYYCAAERYKNGAGQRKYAYDYWGQGTQVTVSS | high polyreactivity
4 | QVQLVESGGGLVQAGGSLRLSCAASGSIFGWYAMRSYRQAPGKATELVASISGSGGSTYYADSVKGRFTISRDNAKNTVYLQMNSLKPEDTAVYYCAADYALSSLPFDYWGQGTQVTVSS | high polyreactivity
5 | QVQLVESGGGLVQAGGSLRLSCAASGSIFGYAMGWYRQAPGKERELVAAISFSGVSTYYADSVKGRFTISRDNAKNTVYLQMNSLKPDDTAVYYCATDRFYYRTGYDPYYYWGQGTQVTVSS | low polyreactivity
6 | QVQLVESGGGLVQAGGSLRLSCAASGSIFGYNAMGWYRQAPATERELVATIRNGGITNYADSVKGRFTISRDNAKNTVYLQMNSLKPEDTAVYYCAADVVQYLYYFRLDYWGQGTQVTVSS | low polyreactivity
7 | QVQLVESGGGLVQAGGSLRLSCAASGSIFGYNAMGWYRQAPGKEREFVAAISWSGGRTYYADSVKGRFTISRDNAKNTVYLQMNSLKPEDTAVYYCAAPSRPAPRFDYWGQGTQVTVSS | low polyreactivity
8 | QVQLVESGGGLVQAGGSLRLSCAASGSIFGYNAMGWYRQAPGKERELVAAISYSGGSTYYADSVKWRFTISRDNAKNTVYLQMNSLKPEDTAVYYCNKYIRRYLIYGSWGQGTQVTVSS | high polyreactivity
9 | QVQLVESGGGLVQAGGSLRLSCAASGSIFGYNAMGWYRQAPGKERELVAVITRSDGSTYYADSVKGRFTISRDNAKNTVYLQMNSLKPEDTAVYYCNAETHVYYWGVVIYEYNYWGQGTQVTVSS | low polyreactivity
10 | QVQLVESGGGLVQAGGSLRLSCAASGSIFGYNTMGWYIQAPGKERELVATITRGGSTHYADSVKGRFTISRDNAKNTVYLQMNSLKPEDTAVYYCAATRLSYVRLYRFSQQYYYWGQGTQVTVSS | high polyreactivity
11 | QVQLVESGGGLVQAGGSLRLSCAASGSIFGYYAMGWYRQAPGKEREFVAAISWSGGRTTYADSVKGRFTISRDNAKNTVYLQMNSLKPEDTAVYYCAAAARRKFYYWGQGTQVTVSS | high polyreactivity
12 | QVQLVESGGGLVQAGGSLRLSCAASGSIFGYYAMGWYRQAPGKERELVAAISSGDSTYADSVKGRFTISRDNAKNTVYLQMNSLKPEDTAVYYCAADEYYTFSSFELRRMDYWGQGTQVTVSS | low polyreactivity
13 | QVQLVESGGGLVQAGGSLRLSCAASGSIFGYYAMGWYRQAPGKERELVAAISSGGNTNYADSVKGRFTISRDNAKNTVYLQMNSLKPEDTAVYYCATRARYKRIRYDYWGQGTQVTVSS | high polyreactivity
14 | QVQLVESGGGLVQAGGSLRLSCAASGSIFGYYAMGWYRQAPGKERELVAAISVRGGSTYYADSVKGRFTISRDNAKNTVYLQMNSLKPEDTAVYYCAARISYSLSYWGQGTQVTVSS | high polyreactivity
15 | QVQLVESGGGLVQAGGSLRLSCAASGSIFGYYAMGWYRQAPGKERELVARISYSGGTTYYADSVKGRFTISRDNAKNTVYLQMNSLKPEATAVYYCNARIPYSWRYGYWGQGTQVTVSS | high polyreactivity
16 | QVQLVESGGGLVQAGGSLRLSCAASGSIFGYYAMGWYRQAPGKERELVASISGSGGTTYFADSVKGRFTISRDNAKNTVYLQMNSLKPEDTAVYYCAARRSIYGYPFVTSRRGYWGQGTQVTVSS | high polyreactivity

Row | Sequence | polyreactivity (PSR sort gate)
17 | QVQLVESGGGLVQAGGSLRLSCAASGSIFGYYDMGWYRQAPGKERELVAAISYRGSSTYYADSVKGRFTISRDNAKNTVYLQMNSLKPEDTAVYYCASRYYYSYPPQEDDYWGQGTQVTVSS | high polyreactivity
18 | QVQLVESGGGLVQAGGSLRLSCAASGSIFGYYTMGWYRQAPGKERELVAAITSGGSTNYADSVKGRFTISRDNAKNTVYLQMNSLKPEDTAVYYCAKVSYYPWRYDYWGQGTQVTVSS | low polyreactivity
19 | QVQLVESGGGLVQAGGSLRLSCAASGSIFGYYTMGWYRQAPGKERELVAGIDFITTSTYYADSVKGRFTISRDNAKNTVYLQMNSLKPEDTAVYYCNADPFTGYDYWGQGTQVTVSS | low polyreactivity
20 | QVQLVESGGGLVQAGGSLRLSCAASGSIFGYYTMGWYRQAPGKERELVAGITSTGNTNYADSVKGRFTISRDNAKNTVYLQMNSLKPEDTAVYYCAADSESTWDYGWELEVGYDYWGQGTQVTVSS | low polyreactivity
21 | QVQLVESGGGLVQAGGSLRLSCAASGSIFGYYTMGWYRQAPGKERELVATITSGGSTYYADSVKGRFTISRDNAKNTVYLQMNSLKPEDTAVYYCNADWYWRVYWGQGTQVTVSS | high polyreactivity
22 | QVQLVESGGGLVQAGGSLRLSCAASGSIFHGYAMGWYRQAPGKERELVAAISYTGGRTYYADSVKGRFTISRDNAKNTVYLQMNSLKPEDTAVYYCADDSQLTKFYYWGQGTQVTVSS | high polyreactivity
23 | QVQLVESGGGLVQAGGSLRLSCAASGSIFHGYAMGWYRRAPGKERELVAAITYSGGRTYYADSVKGRFTISRDNAKNTVYLQMNSLKPEDTAVYYCAALTRRVKKYDYWGQGTQVTVSS | high polyreactivity
24 | QVQLVESGGGLVQAGGSLRLSCAASGSIFHHNAMGWYRQAPGKERELVAAISSRSGNTYYADSVKGRFTISRDNAKNTVYLQMNSLKPEDTAVYYCAAGKRLSYSTYDSWGQGTQVTVSS | high polyreactivity
25 | QVQLVESGGGLVQAGGSLRLSCAASGSIFHINAMGWYRQAPGKERELVADISQRGGSTYYADSVKGRVTISRDNAKNTVYLQMNSLKPEDTAVYYCAVVHVFYAVSYFSFYTYEYWGQGTQVTVSS | low polyreactivity
26 | QVQLVESGGGLVQAGGSLRLSCAASGSIFHIYMGWYRQSPGKERELVASNSYRGGTTYYADSVKGRFTISRDNAKNTVYLQMNSLKPEDTAVYDCNVDRYFYHYGRYGHMDYWGQGTQVTVSS | low polyreactivity
27 | QVQLVESGGGLVQAGGSLRLSCAASGSIFHLYLGWYRQAPRKERELVAVIKSSGDSTYYADSVKGRFTISRDNAKNTVYLQMNSMKPEDTAVYYCNARRRGPRYRYCYWGQGTQVTVSS | high polyreactivity
28 | QVQLVESGGGLVQAGGSLRLSCAASGSIFHMNAMGWYRQAPGKERELDASISSDGSTYYADSVKGRFTISRDNAKNTVYLQMNSLKPEVTAVYYCNADSQWALKQLSFDYWGQGTQVTVSS | low polyreactivity
29 | QVQLVESGGGLVQAGGSLRLSCAASGSIFHPNAMGWYRQAPGKERELVAAITKSGGSTYYADSVKGRFTISRDNAKNTVYLQMNSLKPEDTAVYYCAKVSRATVTYDYWGQGTQVTVSS | high polyreactivity
30 | QVQLVESGGGLVQAGGSLRLSCAASGSIFHRYAMGWYRQAPGKEREFVAAISGRGGSTYYADSVKGRFTISRDNAKNSVYLQMNSLKPEDTAVYYCAADSSRFYGRPRYYYWGQGTQVTVSS | high polyreactivity
31 | QVQLVESGGGLVQAGGSLRLSCAASGSIFHTYVMGWYRQAPGKERELVASITRSGGSTYYADSVKGRFTISRDNAMNTVYLQMNSLKPEDTAVYYCAATYRTANHRYYYWGQGTQVTVSS | high polyreactivity
32 | QVQLVESGGGLVQAGGSLRLSCAASGSIFHVYGMGWYRQAPGKEREFVADITSRGTRTYYADSVKGRFTISRDNAKNTVYLQMNSLKPEDTAVYYCNTLVGVDFWLVDYWGQVTQVTVSS | low polyreactivity
